Measurements: US11584938B2, “Plant EPSPS mutant containing L195P and S247G mutations and encoding gene and use thereof” (GEVOTO LLC, priority 2017, dated 2023)

Tested on: double knockout E. coli (EPSPS defective E. coli, EDCE)
Experiment: growth of EPSPS defective E. coli transformed by the EPSPS gene in M9 culture media containing different glyphosate concentrations
Format: cell-based, E. coli DH5α
Conditions: for EPSPS enzyme activity: concluded from growth of defective E. coli at 0 mM glyphosate
From the text: A method for detecting the glyphosate resistance of the soybean EPSPS mutant G1 provided in Example 1 and the soybean EPSPS mutant G3 provided in Example 2 is as follows:
according to the sequence of the nucleic acid molecule provided in the example, synthesizing the encoding gene that encodes the soybean EPSPS mutant G1 or G3 using a chemical synthesis method, introducing enzyme sites (Pac1 and Sbf1) at two ends thereof, connecting to an expression vector (for example, a pADV5 vector, the structure of which is as shown in FIG. 15) that has undergone the same restriction enzyme digestion treatment under the action of ligase after restriction enzyme digestion, then transforming double knockout E. coli, picking positive colonies after verification, inoculating the positive colonies to M9 culture media containing different glyphosate concentrations for growth, and observing the growth situation of the E. coli.
The wild-type soybean EPSPS (with an amino acid sequence represented by SEQ ID NO: 2 and an encoding gene sequence represented by SEQ ID NO: 1) and the soybean EPSPS mutant G2 (with an amino acid sequence represented by SEQ ID NO: 6, and a corresponding encoding gene sequence represented by SEQ ID NO: 5) merely containing the mutation P114(101)S were taken as controls.
In the above, the M9 basal culture medium can be prepared by the following method:
5×M9 salt solution: 6.78 g of Na2HPO4, 3.0 g of KH2PO4, 0.5 g of NaCl, and 1.0 g of NH4Cl were weighed, added with ddH2O to 200 ml, and subjected to high-temperature and high-pressure sterilization treatment;
20% glucose: 20 g of glucose was weighed, added with 80 ml of ddH2O for dissolving, diluted to 100 ml, and subjected to filtration and sterilization treatment;
1.0 M MgSO4: 24.6 g of MgSO4-7H2O was weighed, dissolved with 80 ml of ddH2O, diluted to 100 ml, and subjected to sterilization treatment;
1.0 M CaCl2: 11.1 g of CaCl2 was weighed, dissolved with 80 ml of ddH2O, diluted to 100 ml, and subjected to sterilization treatment; and
1000 ml of the M9 basal culture media were prepared by adding ddH2O to 200 ml of 5×M9 salt solution, 20 ml of 20% glucose, 2 ml of 1.0 M MgSO4 and 0.1 ml of 1.0 M CaCl2 to make up to 1000 ml.
In the above, the E. coli used was double knockout E. coli, namely, EPSPS defective E. coli (E. coli DH5α with EPSPS gene and C-P Lyase gene being knocked out, named as EDCE, wherein for a preparation method thereof, reference can be made to a Chinese invention patent with the filing number CN2016103256926).
The glyphosate resistance of the soybean EPSPS mutant G4 provided in Example 3 and the soybean EPSPS mutant G5 provided in Example 4 was verified with reference to the detection method in Experiment Example 1.
The wild-type wheat EPSPS (with an amino acid sequence represented by SEQ ID NO: 14, and a corresponding encoding gene sequence represented by SEQ ID NO: 13) and the wheat EPSPS mutant T2 (with an amino acid sequence represented by SEQ ID NO: 18, and a corresponding encoding gene sequence represented by SEQ ID NO: 17) merely containing the mutation P118(101)S were taken as controls to verify the glyphosate resistance of the wheat EPSPS mutants T1 and T3 provided in Example 5 and Example 6, and reference can be made to Experiment Example 1 for the method.
A method for verifying the glyphosate resistance of the wheat EPSPS mutants T4, T5, and T6 provided in Examples 7-9 is the same as that in Experiment Example 3.
The wild-type rice EPSPS R0 (with an amino acid sequence represented by SEQ ID NO: 28, and a corresponding encoding gene sequence represented by SEQ ID NO: 27) and the rice EPSPS mutant R2 (with an amino acid sequence represented by SEQ ID NO: 32, and a corresponding encoding gene sequence represented by SEQ ID NO: 31) merely containing the mutation P116(101)S were taken as controls to verify the glyphosate resistance of the rice EPSPS mutants R1 and R3 provided in Examples 10 and 11, and reference can be made to Experiment Example 1 for the method. […]

[1] = culture media containing 0 mM glyphosate
[2] = culture media containing 1 mM glyphosate
[3] = culture media containing 5 mM glyphosate
[4] = culture media containing 10 mM glyphosate
[5] = culture media containing 20 mM glyphosate

| Molecule | glyphosate resistance (overall statement) | growth of the E. coli transformed by the EPSPS [1] | growth of the E. coli transformed by the EPSPS [2] | growth of the transformed E. coli compared with E. coli transformed by the control EPSPS named in the value [2] | growth of the E. coli transformed by the EPSPS [3] | EPSPS enzyme activity | growth of the E. coli transformed by the EPSPS [4] | growth of the transformed E. coli compared with E. coli transformed by the control EPSPS named in the value [4] | growth of the E. coli transformed by the EPSPS [5] | growth of the transformed E. coli compared with E. coli transformed by the control EPSPS named in the value [3] | growth of the transformed E. coli compared with E. coli transformed by the control EPSPS named in the value [5] |
| --- | --- | --- | --- | --- | --- | --- | --- | --- | --- | --- | --- |
| T1: wheat EPSPS mutant, SEQ ID NO: 16, mutation S269(247)G (protein) MATSVAAPAAPAGAEEVVLQPIREISGAVQLPGSKSLSNRILLLSALSEGTTVVDNLLNSEDVHYMLEALEALGLSVEADKVAKRAVVVGCGGRFPVEKDAKEEVKLFLGNAGTAMRPLTAAVVAAGGNATYVLDGVPRMRERPIGDLVVGLQQLGADVDCFLGTNCPPVRINGKGGLPGGKVKLSGSISSQYLSSLLMAAPLALEDVEIEIIDKLISVPYVEMTLKLMEHFGVTAEHSDSWDRFYIKGGQKYKSPGNAYVEGDASSAGYFLAGAAITGGTVTVEGCGTTSLQGDVKFAEVLEMMGAKVTWTDTSVTVTGPPRQPFGRKHLKAVDVNMNKMPDVAMTLAVVALFADGPTAIRDVASWRVKETERMVAIRTELTKLGATVEEGPDYCIITPPEKLNITAIDTYDDHRMAMAFSLAACAEVPVTIRDPGCTRKTFPNYFDVLSTFVKN | have glyphosate resistance | could grow | could grow normally | obviously superior to that of the E. coli transformed by T0 | did not grow obviously | – | – | – | – | – | – |
| T4: wheat EPSPS mutant, SEQ ID NO: 22, mutation L216(195)P (protein) MATSVAAPAAPAGAEEVVLQPIREISGAVQLPGSKSLSNRILLLSALSEGTTVVDNLLNSEDVHYMLEALEALGLSVEADKVAKRAVVVGCGGRFPVEKDAKEEVKLFLGNAGTAMRPLTAAVVAAGGNATYVLDGVPRMRERPIGDLVVGLQQLGADVDCFLGTNCPPVRINGKGGLPGGKVKLSGSISSQYLSSLLMAAPLALEDVEIEIIDKPISVPYVEMTLKLMEHFGVTAEHSDSWDRFYIKGGQKYKSPGNAYVEGDASSASYFLAGAAITGGTVTVEGCGTTSLQGDVKFAEVLEMMGAKVTWTDTSVTVTGPPRQPFGRKHLKAVDVNMNKMPDVAMTLAVVALFADGPTAIRDVASWRVKETERMVAIRTELTKLGATVEEGPDYCIITPPEKLNITAIDTYDDHRMAMAFSLAACAEVPVTIRDPGCTRKTFPNYFDVLSTFVKN | – | could grow | could grow normally | – | did not grow obviously | normal EPSPS enzyme activity | – | – | – | – | – |
| T3: wheat EPSPS mutant, SEQ ID NO: 20, mutations S269(247)G and P118(101)S (protein) MATSVAAPAAPAGAEEVVLQPIREISGAVQLPGSKSLSNRILLLSALSEGTTVVDNLLNSEDVHYMLEALEALGLSVEADKVAKRAVVVGCGGRFPVEKDAKEEVKLFLGNAGTAMRSLTAAVVAAGGNATYVLDGVPRMRERPIGDLVVGLQQLGADVDCFLGTNCPPVRINGKGGLPGGKVKLSGSISSQYLSSLLMAAPLALEDVEIEIIDKLISVPYVEMTLKLMEHFGVTAEHSDSWDRFYIKGGQKYKSPGNAYVEGDASSAGYFLAGAAITGGTVTVEGCGTTSLQGDVKFAEVLEMMGAKVTWTDTSVTVTGPPRQPFGRKHLKAVDVNMNKMPDVAMTLAVVALFADGPTAIRDVASWRVKETERMVAIRTELTKLGATVEEGPDYCIITPPEKLNITAIDTYDDHRMAMAFSLAACAEVPVTIRDPGCTRKTFPNYFDVLSTFVKN | have glyphosate resistance | could grow | could grow normally | – | – | – | could grow | obviously superior to that of the E. coli transformed by T2 | – | – | – |
| T2: wheat EPSPS mutant, SEQ ID NO: 18, merely containing the mutation P118(101)S; control (protein) MATSVAAPAAPAGAEEVVLQPIREISGAVQLPGSKSLSNRILLLSALSEGTTVVDNLLNSEDVHYMLEALEALGLSVEADKVAKRAVVVGCGGRFPVEKDAKEEVKLFLGNAGTAMRSLTAAVVAAGGNATYVLDGVPRMRERPIGDLVVGLQQLGADVDCFLGTNCPPVRINGKGGLPGGKVKLSGSISSQYLSSLLMAAPLALEDVEIEIIDKLISVPYVEMTLKLMEHFGVTAEHSDSWDRFYIKGGQKYKSPGNAYVEGDASSASYFLAGAAITGGTVTVEGCGTTSLQGDVKFAEVLEMMGAKVTWTDTSVTVTGPPRQPFGRKHLKAVDVNMNKMPDVAMTLAVVALFADGPTAIRDVASWRVKETERMVAIRTELTKLGATVEEGPDYCIITPPEKLNITAIDTYDDHRMAMAFSLAACAEVPVTIRDPGCTRKTFPNYFDVLSTFVKN | – | could grow | could grow normally | – | could grow | – | could grow | – | could grow | – | – |
| T6: wheat EPSPS mutant, SEQ ID NO: 26, mutations L216(195)P, S269(247)G and P118(101)S (protein) MATSVAAPAAPAGAEEVVLQPIREISGAVQLPGSKSLSNRILLLSALSEGTTVVDNLLNSEDVHYMLEALEALGLSVEADKVAKRAVVVGCGGRFPVEKDAKEEVKLFLGNAGTAMRSLTAAVVAAGGNATYVLDGVPRMRERPIGDLVVGLQQLGADVDCFLGTNCPPVRINGKGGLPGGKVKLSGSISSQYLSSLLMAAPLALEDVEIEIIDKPISVPYVEMTLKLMEHFGVTAEHSDSWDRFYIKGGQKYKSPGNAYVEGDASSAGYFLAGAAITGGTVTVEGCGTTSLQGDVKFAEVLEMMGAKVTWTDTSVTVTGPPRQPFGRKHLKAVDVNMNKMPDVAMTLAVVALFADGPTAIRDVASWRVKETERMVAIRTELTKLGATVEEGPDYCIITPPEKLNITAIDTYDDHRMAMAFSLAACAEVPVTIRDPGCTRKTFPNYFDVLSTFVKN | – | could grow | could grow normally | – | could grow | normal EPSPS enzyme activity | – | – | could grow | obviously superior to that of the E. coli transformed by T2 | obviously superior to that of the E. coli transformed by T2 |
| T5: wheat EPSPS mutant, SEQ ID NO: 24, mutations L216(195)P and S269(247)G (protein) MATSVAAPAAPAGAEEVVLQPIREISGAVQLPGSKSLSNRILLLSALSEGTTVVDNLLNSEDVHYMLEALEALGLSVEADKVAKRAVVVGCGGRFPVEKDAKEEVKLFLGNAGTAMRPLTAAVVAAGGNATYVLDGVPRMRERPIGDLVVGLQQLGADVDCFLGTNCPPVRINGKGGLPGGKVKLSGSISSQYLSSLLMAAPLALEDVEIEIIDKPISVPYVEMTLKLMEHFGVTAEHSDSWDRFYIKGGQKYKSPGNAYVEGDASSAGYFLAGAAITGGTVTVEGCGTTSLQGDVKFAEVLEMMGAKVTWTDTSVTVTGPPRQPFGRKHLKAVDVNMNKMPDVAMTLAVVALFADGPTAIRDVASWRVKETERMVAIRTELTKLGATVEEGPDYCIITPPEKLNITAIDTYDDHRMAMAFSLAACAEVPVTIRDPGCTRKTFPNYFDVLSTFVKN | – | could grow | could grow normally | – | grew obviously | normal EPSPS enzyme activity | – | – | – | – | – |
